Results on 5 proteins are retold here after publication PMC3558466, “An Enzyme-Catalyzed Multistep DNA Refolding Mechanism in Hairpin Telomere Formation” (PLoS Biology, 2013).

The chains are these.
B1: Selenomethionine-labeled TelA (enzyme, Agrobacterium tumefaciens C58, UniProt Q7CWV1 1-442, looked up)
chain: MLAAKRKTKTPVLVERIDQFVGQIKEAMKSDDASRNRKIRDLWDAEVRYHFDNGRTEKTLELYIMKYRNALKAEFGPKSTPLAICNMKKLRERLNTYIARGDYPKTGVATSIVEKIERAEFNTAGRKPTVLLRIADFIAAMNGMDAKQDMQALWDAEIAIMNGRAQTTIISYITKYRNAIREAFGDDHPMLKIATGDAAMYDEARRVKMEKIANKHGALITFENYRQVLKICEDCLKSSDPLMIGIGLIGMTGRRPYEVFTQAEFSPAPYGKGVSKWSILFNGQAKTKQGEGTKFGITYEIPVLTRSETVLAAYKRLRESGQGKLWHGMSIDDFSSETRLLLRDTVFNLFEDVWPKEELPKPYGLRHLYAEVAYHNFAPPHVTKNSYFAAILGHNNNDLETSLSYMTYTLPEDRDNALARLKRTNERTLQQMATIAPVSRKG
modifications: selenomethionine-labeled (eleven selenium sites per TelA monomer located)
notes: Protelomerase TelA, Agrobacterium tumefaciens C58, gene locus Atu_2523, full-length 442 residues; model covers residues 102-421; Phosphotyrosine complex trapped with the nicked suicide substrate DNAc; used for SAD phasing; also called SeMet-TelA; source: E. coli methionine auxotroph strain B834(DE3), selenomethionine-labeled; not shown: His-tag (20 residues), N-terminal, kept
B2: TelA R205A (enzyme)
chain: MLAAKRKTKTPVLVERIDQFVGQIKEAMKSDDASRNRKIRDLWDAEVRYHFDNGRTEKTLELYIMKYRNALKAEFGPKSTPLAICNMKKLRERLNTYIARGDYPKTGVATSIVEKIERAEFNTAGRKPTVLLRIADFIAAMNGMDAKQDMQALWDAEIAIMNGRAQTTIISYITKYRNAIREAFGDDHPMLKIATGDAAMYDEAARVKMEKIANKHGALITFENYRQVLKICEDCLKSSDPLMIGIGLIGMTGRRPYEVFTQAEFSPAPYGKGVSKWSILFNGQAKTKQGEGTKFGITYEIPVLTRSETVLAAYKRLRESGQGKLWHGMSIDDFSSETRLLLRDTVFNLFEDVWPKEELPKPYGLRHLYAEVAYHNFAPPHVTKNSYFAAILGHNNNDLETSLSYMTYTLPEDRDNALARLKRTNERTLQQMATIAPVSRKG
notes: Crystallised with DNAb6; source: E. coli BL21, pBAD promoter, purified (Ni-NTA, Heparin-Sepharose)
B3: TelA, protelomerase from Agrobacterium tumefaciens C58, wild type (enzyme, UniProt Q7CWV1 1-442, looked up)
chain: MLAAKRKTKTPVLVERIDQFVGQIKEAMKSDDASRNRKIRDLWDAEVRYHFDNGRTEKTLELYIMKYRNALKAEFGPKSTPLAICNMKKLRERLNTYIARGDYPKTGVATSIVEKIERAEFNTAGRKPTVLLRIADFIAAMNGMDAKQDMQALWDAEIAIMNGRAQTTIISYITKYRNAIREAFGDDHPMLKIATGDAAMYDEARRVKMEKIANKHGALITFENYRQVLKICEDCLKSSDPLMIGIGLIGMTGRRPYEVFTQAEFSPAPYGKGVSKWSILFNGQAKTKQGEGTKFGITYEIPVLTRSETVLAAYKRLRESGQGKLWHGMSIDDFSSETRLLLRDTVFNLFEDVWPKEELPKPYGLRHLYAEVAYHNFAPPHVTKNSYFAAILGHNNNDLETSLSYMTYTLPEDRDNALARLKRTNERTLQQMATIAPVSRKG
notes: Protelomerase TelA, Agrobacterium tumefaciens C58, gene locus Atu_2523, full-length 442 residues; residues 102-421 ordered in the crystal models; In 4E0P and 4E0Y Tyr405 is joined to the cleaved DNA by a phosphotyrosine bond; in 4E0G orthovanadate bridges Tyr405 and the DNA ends; also called telomere resolvase; wild-type TelA; source: E. coli BL21, pBAD promoter, purified (Ni-NTA, …)
B4: TelA Y201A (enzyme)
chain: MLAAKRKTKTPVLVERIDQFVGQIKEAMKSDDASRNRKIRDLWDAEVRYHFDNGRTEKTLELYIMKYRNALKAEFGPKSTPLAICNMKKLRERLNTYIARGDYPKTGVATSIVEKIERAEFNTAGRKPTVLLRIADFIAAMNGMDAKQDMQALWDAEIAIMNGRAQTTIISYITKYRNAIREAFGDDHPMLKIATGDAAMADEARRVKMEKIANKHGALITFENYRQVLKICEDCLKSSDPLMIGIGLIGMTGRRPYEVFTQAEFSPAPYGKGVSKWSILFNGQAKTKQGEGTKFGITYEIPVLTRSETVLAAYKRLRESGQGKLWHGMSIDDFSSETRLLLRDTVFNLFEDVWPKEELPKPYGLRHLYAEVAYHNFAPPHVTKNSYFAAILGHNNNDLETSLSYMTYTLPEDRDNALARLKRTNERTLQQMATIAPVSRKG
notes: Crystallised with DNAb; source: E. coli BL21, pBAD promoter, purified (Ni-NTA, Heparin-Sepharose)
B5: TelA R255A (enzyme)
chain: MLAAKRKTKTPVLVERIDQFVGQIKEAMKSDDASRNRKIRDLWDAEVRYHFDNGRTEKTLELYIMKYRNALKAEFGPKSTPLAICNMKKLRERLNTYIARGDYPKTGVATSIVEKIERAEFNTAGRKPTVLLRIADFIAAMNGMDAKQDMQALWDAEIAIMNGRAQTTIISYITKYRNAIREAFGDDHPMLKIATGDAAMYDEARRVKMEKIANKHGALITFENYRQVLKICEDCLKSSDPLMIGIGLIGMTGRAPYEVFTQAEFSPAPYGKGVSKWSILFNGQAKTKQGEGTKFGITYEIPVLTRSETVLAAYKRLRESGQGKLWHGMSIDDFSSETRLLLRDTVFNLFEDVWPKEELPKPYGLRHLYAEVAYHNFAPPHVTKNSYFAAILGHNNNDLETSLSYMTYTLPEDRDNALARLKRTNERTLQQMATIAPVSRKG
notes: source: E. coli BL21, pBAD promoter, purified (Ni-NTA, Heparin-Sepharose)

This data set deals with the molecule itself. The experiment in a line: crystal structure; TelA-DNA complexes (equal moles of protein monomer and DNA half-site), hanging drop vapor diffusion at 20°C, 5% PEG 4000, 10 mM Tris-HCl pH 7.4, 300 mM NaCl; one TelA per asymmetric unit, the dimer is generated by the crystallographic dyad; TelA is bound to DNA.
As for B1, the “stoichiometry N” value amounted to 2.

For B2, the “stoichiometry N” value was 2.

In the case of B3, the “stoichiometry N” value is 2.

As for B4, the “stoichiometry N” value is 2.

In the case of B5, the “stoichiometry N” value turned out to be 2.

As a reminder, the stoichiometry N is the number of molecules, sites or subunits per partner or assembly.
